For 1 substance, Kd results are on record in article PMC9704045.

Usually Kd stands for the free concentration of one partner at which half of the binding sites on the other are occupied at equilibrium, for simple one-to-one binding. A lower Kd goes with a tighter complex.

Read-outs that look alike come from different tables or passages of the source. A value given as a limit tells only on which side of the number the result lay.

Assay [1] addresses wild-type HexaPro (D614) SARS-CoV-2 spike trimer (SARS-CoV-2). Briefly: BLI; Octet Red384; […]; analyte ([…]; HBS-EP+ buffer; 1:1 binding model. (In general: In BLI a coated tip is dipped into the sample, and binding shifts an interference pattern.)
Assay [2] has the same target. The description is as above. The source holds these as a separate data set.

As to “cilgavimab (AZD1061), full-length IgG (antibody)”, the Kd is less than 0.001 nM in assay [1] and 0.669 nM in assay [2].
